Test results reported in patent US20080207517A1 (INSTITUT PASTEUR, published 2008).

Target: the molecule itself
Test: gel filtration (Superdex 75) at 10 µM, self-association
Method: The oligomeric states of peptides were determined by filtration as described in Traincard et al., 2003. In brief, 500 μl samples were loaded on a SUPERDEX™ 75 HR 10/30 column equilibrated in 50 mM Tris-HCl pH 8.0 containing 200 mM NaCl and 0.1 mM DDM, at a constant flow rate of 0.4 ml/min. The presence of the DDM detergent was added in the equilibrium buffer to minimize the adsorption in the column and to increase the peptide recovery. The column was calibrated in the same equilibrium buffer with blue dextran 2000 (void volume), dithioerythritol (total volume), bovine serum albumin (67 kDa, Rs=35.2 Å), ovalbumine (43 kDa, Rs=27.5 Å), chymotrypsinogen A (25 kDa, Rs=21.1 Å), ribonuclease A (13.7 kDa, Rs=16.4 Å), cytochrome C (12.4 kDa, Rs=17.7 Å) and aprotinin (6.5 KDa, Rs=13.5 Å).
The antennapedia sequence is a protein transduction domain (PTD) which adopts an alpha-helical amphiphatic structure (Prochiantz, 2000, Curr. Opin. Cell Biol.). […] To examine the effect of N-fusion of the antennapedia peptide on the oligomerization properties of the CC2 and the LZ peptides, the present inventors analyzed peptides containing or not containing the antennapedia sequence at their N-terminus by gel filtration. […]

B1: LZ (WT) (peptide)
peptide: Ac-LKAQADIYKADFQAERHAREKLVEKKEYLQEQLEQLQREFNKL-NH2
notes: Forms a dimer at 10 uM in gel filtration; also called LZ peptide; LZ wild type
  binding result: binds
